Test results: US20220401476A1

Experiments:
[1] = target: rhIL-18 (IL-18, #9124-IL-010, R&D Systems) (human) (UniProt Q14116); test: cell-based or functional assay
[2] = target: CD19 surface antigen on Raji lymphoma target-cells (#CCL-86, ATCC) (UniProt P15391); test: cell-based or functional assay
Chain of UniProt P15391 (P15391 20-556 limits assumed): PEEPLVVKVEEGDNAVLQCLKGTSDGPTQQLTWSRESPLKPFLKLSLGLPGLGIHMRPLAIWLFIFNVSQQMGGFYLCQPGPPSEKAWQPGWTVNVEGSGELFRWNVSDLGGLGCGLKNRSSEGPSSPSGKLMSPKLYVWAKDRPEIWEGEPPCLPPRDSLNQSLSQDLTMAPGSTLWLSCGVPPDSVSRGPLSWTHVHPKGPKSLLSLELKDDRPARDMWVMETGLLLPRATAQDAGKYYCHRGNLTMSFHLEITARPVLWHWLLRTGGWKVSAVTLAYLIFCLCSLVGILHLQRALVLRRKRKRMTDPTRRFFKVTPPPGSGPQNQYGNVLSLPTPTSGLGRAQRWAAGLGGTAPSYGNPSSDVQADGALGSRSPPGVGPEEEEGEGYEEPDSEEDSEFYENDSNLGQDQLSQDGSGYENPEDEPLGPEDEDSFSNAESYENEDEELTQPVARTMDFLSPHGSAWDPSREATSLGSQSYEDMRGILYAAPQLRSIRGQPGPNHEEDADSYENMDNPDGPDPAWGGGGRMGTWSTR

Chain of UniProt Q14116 (Q14116 37-193 limits assumed): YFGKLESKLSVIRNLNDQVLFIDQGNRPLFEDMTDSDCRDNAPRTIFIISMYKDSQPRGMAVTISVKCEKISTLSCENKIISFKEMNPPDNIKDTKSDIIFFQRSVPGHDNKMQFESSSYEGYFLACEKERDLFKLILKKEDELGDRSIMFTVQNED

Row | Substance | IL-18BP-mediated inhibition (%) of IFN-γ in Tumor + CAR-T + IL-18 + IL-12 culture, day 1 [1] [%] | IL-18BP-mediated inhibition (%) of IFN-γ in Tumor + CAR-T + IL-18 + IL-12 culture, day 2 [1] [%] | IL-18BP-mediated inhibition (%) of IFN-γ in Tumor + CAR-T + IL-18 + IL-12 culture, day 3 [1] [%] | IL-18BP-mediated inhibition (%) of IFN-γ in Tumor + CAR-T + IL-18 culture, day 1 [1] [%] | IL-18BP-mediated inhibition (%) of IFN-γ in Tumor + CAR-T + IL-18 culture, day 2 [1] [%] | IL-18BP-mediated inhibition (%) of IFN-γ in Tumor + CAR-T + IL-18 culture, day 3 [1] [%] | reduction of IFN-γ production boosted by rhIL-12 and rhIL-18, average over three days [1] [%] | Mean concentration (pg/mL) of IFN-γ in culture medium, Tumor + CAR-T, day 1 [2] [pg/mL] | Mean cumulative concentration (pg/mL) of IFN-γ in culture medium, Tumor + CAR-T, day 2 [2] [pg/mL] | Mean cumulative concentration (pg/mL) of IFN-γ in culture medium, Tumor + CAR-T, day 3 [2] [pg/mL]
1 | recombinant human IL-18BP (rhIL-18BP, Tadekinig alfa) | 82 | 79 | 75 | 100 | 92 | 79 | 80 | – | – | –
2 | CD19-specific CAR of CD19SCFV-CD28-4-1BB-CD3 CAR-T-cells (#PM-CAR1003-10M, ProMAB) | – | – | – | – | – | – | – | 6910 | 21500 | 32700
